Data reported in PMC4701444 (PLoS ONE, 2016).
Bridge positions count the residues as written; N and C are the ends. Ends that are not written are not given here. * marks the point of attachment. 5FAM = O=C1OC2(c3ccc(O)cc3Oc3cc(O)ccc32)c2ccc(C(=O)*)cc21

Key:
[1] = target: ΔDII-PfAMA1 (PfAMA1 DI-DII with residues 351-387 of the DII loop replaced by 7 Gly/Ser residues) (Plasmodium falciparum) (UniProt Q7KQK5); assay: ITC; 25°C, MicroCal iTC200; cell: PfAMA1 or ΔDII-PfAMA1 (10 μM); syringe: PfRON2D3-TRX (110 μM), 17 injections of 2.2 μL; 20 mM Hepes pH 7.5, 150 mM NaCl; one binding site model
[2] = target: F*PfRON2sp1 (39 aa) [2021-2059], fluorescein-labeled PfRON2sp1 peptide (Plasmodium falciparum); assay: fluorescence polarisation; anisotropy titration at 30°C; 10 nM F*PfRON2sp1 titrated with protein (0 to 10 μM); PBS pH 7.4, at least 0.1% BSA
[3] = target: F*PfRON2sp1 (39 aa) [2021-2059], fluorescein-labeled PfRON2sp1 peptide (Plasmodium falciparum); assay: fluorescence polarisation; anisotropy titration at 20°C; 10 nM F*PfRON2sp1 titrated with protein (0 to 10 μM); PBS pH 7.4, at least 0.1% BSA
[4] = target: F*PfRON2sp1 (39 aa) [2021-2059], fluorescein-labeled PfRON2sp1 peptide (Plasmodium falciparum); assay: fluorescence polarisation; anisotropy kinetics at 30°C; association: 10 nM labeled probe with 50, 100, 200 nM protein; dissociation: 10 nM preformed complex challenged with 2500 or 5000 nM unlabeled PfRON2sp1; global fit to a one-intermediate model; PBS pH 7.4, at least 0.1% BSA
[5] = target: F*PfRON2sp1 (39 aa) [2021-2059], fluorescein-labeled PfRON2sp1 peptide (Plasmodium falciparum); assay: fluorescence polarisation; anisotropy kinetics at 20°C; association: 10 nM labeled probe with 50, 100, 200 nM protein; dissociation: 10 nM preformed complex challenged with 2500 or 5000 nM unlabeled PfRON2sp1; global fit to a one-intermediate model; PBS pH 7.4, at least 0.1% BSA
[6] = target: F*PfRON2sp1 (39 aa) [2021-2059], fluorescein-labeled PfRON2sp1 peptide (Plasmodium falciparum); assay: fluorescence polarisation; anisotropy titration at 25°C; 10 nM F*PfRON2sp1 titrated with protein (0 to 10 μM); PBS pH 7.4, at least 0.1% BSA
[7] = target: F*PfRON2sp1 (39 aa) [2021-2059], fluorescein-labeled PfRON2sp1 peptide (Plasmodium falciparum); assay: fluorescence polarisation; anisotropy kinetics at 25°C; association: 10 nM labeled probe with 50, 100, 200 nM protein; dissociation: 10 nM preformed complex challenged with 2500 or 5000 nM unlabeled PfRON2sp1; global fit to a one-intermediate model; PBS pH 7.4, at least 0.1% BSA
[8] = target: T1, PfAMA1 (DI-DII of Plasmodium falciparum Apical Membrane Antigen 1, 3D7, residues 104-438) (Plasmodium falciparum, UniProt Q7KQK5 104-438); assay: fluorescence polarisation; anisotropy titration at 30°C; 10 nM F*PfRON2sp1 titrated with protein (0 to 10 μM); PBS pH 7.4, at least 0.1% BSA; conditions: both partners purified
T1 construct: codon-optimized synthetic gene; also called native PfAMA1; PfAMA1 DI-DII construct
T1 sequence: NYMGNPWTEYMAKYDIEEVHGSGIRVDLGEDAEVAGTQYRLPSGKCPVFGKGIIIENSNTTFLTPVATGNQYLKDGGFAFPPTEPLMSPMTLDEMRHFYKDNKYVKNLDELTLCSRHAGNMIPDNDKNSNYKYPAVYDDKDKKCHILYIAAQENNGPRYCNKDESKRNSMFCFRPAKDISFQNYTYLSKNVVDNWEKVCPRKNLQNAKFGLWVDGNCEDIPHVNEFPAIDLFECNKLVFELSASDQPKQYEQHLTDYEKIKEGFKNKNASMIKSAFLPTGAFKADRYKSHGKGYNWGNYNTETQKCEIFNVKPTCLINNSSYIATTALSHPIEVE

[9] = target: T1, PfAMA1 (DI-DII of Plasmodium falciparum …); assay: fluorescence polarisation; anisotropy kinetics at 25°C; association: 10 nM labeled probe with 50, 100, 200 nM protein; dissociation: 10 nM preformed complex challenged with 2500 or 5000 nM unlabeled PfRON2sp1; global fit to a one-intermediate model; PBS pH 7.4, at least 0.1% BSA; conditions: both partners purified
[10] = target: T1, PfAMA1 (DI-DII of Plasmodium falciparum …); assay: fluorescence polarisation; anisotropy kinetics at 30°C; association: 10 nM labeled probe with 50, 100, 200 nM protein; dissociation: 10 nM preformed complex challenged with 2500 or 5000 nM unlabeled PfRON2sp1; global fit to a one-intermediate model; PBS pH 7.4, at least 0.1% BSA; conditions: both partners purified
[11] = target: T1, PfAMA1 (DI-DII of Plasmodium falciparum …); assay: fluorescence polarisation; anisotropy kinetics at 20°C; association: 10 nM labeled probe with 50, 100, 200 nM protein; dissociation: 10 nM preformed complex challenged with 2500 or 5000 nM unlabeled PfRON2sp1; global fit to a one-intermediate model; PBS pH 7.4, at least 0.1% BSA; conditions: both partners purified
[12] = target: T1, PfAMA1 (DI-DII of Plasmodium falciparum …); assay: fluorescence polarisation; anisotropy titration at 20°C; 10 nM F*PfRON2sp1 titrated with protein (0 to 10 μM); PBS pH 7.4, at least 0.1% BSA; conditions: both partners purified
[13] = target: T1, PfAMA1 (DI-DII of Plasmodium falciparum …); assay: fluorescence polarisation; anisotropy titration at 25°C; 10 nM F*PfRON2sp1 titrated with protein (0 to 10 μM); PBS pH 7.4, at least 0.1% BSA; conditions: both partners purified
[14] = target: T1, PfAMA1 (DI-DII of Plasmodium falciparum …); assay: ITC; 25°C, MicroCal iTC200; cell: PfAMA1 or ΔDII-PfAMA1 (10 μM); syringe: PfRON2D3-TRX (110 μM), 17 injections of 2.2 μL; 20 mM Hepes pH 7.5, 150 mM NaCl; one binding site model; conditions: both partners purified
[15] = target: T1, PfAMA1 (DI-DII of Plasmodium falciparum …); assay: as above; conditions: both partners purified; remark: listed apart in the source

Molecule: PfRON2D3-TRX (thioredoxin fusion of PfRON2D3, amino acids Asp2021 to Ser2059) (domain or fragment)
- Kd [1]: 92.6 nM
- dH [1]: -11.8 kcal/mol

Molecule: ΔDII-PfAMA1 (PfAMA1 DI-DII with residues 351-387 of the DII loop replaced by 7 Gly/Ser residues) (from UniProt Q7KQK5 104-350; Q7KQK5 388-438) (domain or fragment)
- Kd [2]: 125 nM
- Kd [3]: 60 nM
- Kd [4]: 126 nM
- complex half-life (calculated from the one-intermediate model) [4]: 30 s
- complex half-life (experimental) [4]: 30 s
- k1 (step 1, forward: reactants to intermediate) [4]: 168000 M⁻¹ s⁻¹
- k1/k2 (association constant of step 1) [4]: 7.35e+06 M⁻¹
- k2 (step 1, reverse: intermediate to reactants) [4]: 0.0229 s⁻¹
- k3 (step 2, forward: intermediate to complex) [4]: 0.0117 s⁻¹
- k3/k4 (equilibrium constant of step 2) [4]: 0.08
- k4 (step 2, reverse: complex to intermediate) [4]: 0.147 s⁻¹
- Kd [5]: 50 nM
- complex half-life (calculated from the one-intermediate model) [5]: 166 s
- complex half-life (experimental) [5]: 100 s
- k1 (step 1, forward: reactants to intermediate) [5]: 78900 M⁻¹ s⁻¹
- k1/k2 (association constant of step 1) [5]: 1.89e+07 M⁻¹
- k2 (step 1, reverse: intermediate to reactants) [5]: 0.00417 s⁻¹
- k3 (step 2, forward: intermediate to complex) [5]: 0.00459 s⁻¹
- k3/k4 (equilibrium constant of step 2) [5]: 0.056
- k4 (step 2, reverse: complex to intermediate) [5]: 0.0812 s⁻¹
- Kd [6]: 94 nM
- Kd [7]: 80.1 nM
- complex half-life (calculated from the one-intermediate model) [7]: 69.9 s
- complex half-life (experimental) [7]: 48 s
- dH (overall, summation of the transition states from the kinetic fit) [7]: -10.6 kcal/mol
- dH of step 1 (formation of the intermediate) [7]: -16.7 kcal/mol
- k1 (step 1, forward: reactants to intermediate) [7]: 116000 M⁻¹ s⁻¹
- k1/k2 (association constant of step 1) [7]: 1.17e+07 M⁻¹
- k2 (step 1, reverse: intermediate to reactants) [7]: 0.0099 s⁻¹
- k3 (step 2, forward: intermediate to complex) [7]: 0.0074 s⁻¹
- k3/k4 (equilibrium constant of step 2) [7]: 0.067
- k4 (step 2, reverse: complex to intermediate) [7]: 0.11 s⁻¹

B1: F*PfRON2sp1 (39 aa) [2021-2059], fluorescein-labeled PfRON2sp1 peptide (peptide)
peptide: 5FAM-DITQQAKDIGAGPVASCFTTRMSPPQQICLNSVVNTALS
modifications: disulfide 17-29
notes: Rhoptry Neck Protein 2 (RON2) of Plasmodium falciparum, residues 2021-2059; also called labeled peptide; labeled probe; source: synthetic peptide, bought: Kinexus (purity ≥ 95%)
- Kd [8]: 61 ± 5 nM
- Kd [9]: 38.2 ± 10 nM
- Kd [10]: 43.8 ± 11 nM
- Kd [11]: 32.3 ± 8 nM
- Kd [12]: 31 ± 2 nM
- Kd [13]: 43 ± 3 nM

B2: PfRON2D3-TRX (thioredoxin fusion of PfRON2D3, amino acids Asp2021 to Ser2059) (domain or fragment)
chain: DITQQAKDIGAGPVASCFTTRMSPPQQICLNSVVNTALS
notes: Modified pET32a vector with N-terminal hexahistidine and thioredoxin tags and a thrombin cleavage site; the fusion was used uncleaved in ITC; also called TRX-fused peptide; not shown: thioredoxin (TRX), N-terminal, kept
- Kd [14]: 42.9 nM
- dH [15]: -12.1 ± 0.1 kcal/mol
